Source: IntAct's records for PubMed 12799422

B1: Adapter molecule crk (Homo sapiens), P46108 (parent)
chain: MAGNFDSEERSSWYWGRLSRQEAVALLQGQRHGVFLVRDSSTSPGDYVLSVSENSRVSHYIINSSGPRPPVPPSPAQPPPGVSPSRLRIGDQEFDSLPALLEFYKIHYLDTTTLIEPVSRSRQGSGVILRQEEAEYVRALFDFNGNDEEDLPFKKGDILRIRDKPEEQWWNAEDSEGKRGMIPVPYVEKYRPASASVSALIGGNQEGSHPQPLGGPEPGPYAQPSVNTPLPNLQNGPIYARVIQKRVPNAYDKTALALEVGELVKVTKINVSGQWEGECNGKRGHFPFTHVRLLDQQNPDEDFS
B2: Tyrosine-protein phosphatase non-receptor type 1 (Gallus gallus (Chicken)), O13016 (parent)
chain: MEIEKEFHRLDQAASWAAIYQDIRHEASDFPCKVAKHPRNKNRNRYRDVSPFDHSRIKLNQGDNDYINASLIKMEEAQRSYILTQGPLPNTCGHFWEMVWEQKSRGVVMLNRVMEKGSIKCAQYWPRKEEKEMFFEDTNLKLTLISEDIKSYYTVRQLELENLTTQETREILHFHYTTWPDFGVPESPASFLNFLFKVRESGSLNPEYGPVVVHCSAGIGRSGTFCLVDTCLLLMDKRKDPSSVDVKQVLLEMRKYRMGLIQTADQLRFSYLAVIEGAKFIMGDASVQEQWKELSNEDLDPPPEHTPPPPRPPKRTSEMHNGRMHEHAEFFPKHQVVEEEIRCSVSTAEETVSDGRVFSSVPLITDSTSQDTEIRRRTVGENLHVTAHKEESKSESVEEDDENMMTTWKPFLVNICMFTFLTAGAYLCYRVCFH
B3: Adapter molecule crk (Homo sapiens), P46108 (parent)
chain: B1 chain
partner: B2 chain
B4: Adapter molecule crk (Homo sapiens), P46108 (parent)
chain: B1 chain
partner: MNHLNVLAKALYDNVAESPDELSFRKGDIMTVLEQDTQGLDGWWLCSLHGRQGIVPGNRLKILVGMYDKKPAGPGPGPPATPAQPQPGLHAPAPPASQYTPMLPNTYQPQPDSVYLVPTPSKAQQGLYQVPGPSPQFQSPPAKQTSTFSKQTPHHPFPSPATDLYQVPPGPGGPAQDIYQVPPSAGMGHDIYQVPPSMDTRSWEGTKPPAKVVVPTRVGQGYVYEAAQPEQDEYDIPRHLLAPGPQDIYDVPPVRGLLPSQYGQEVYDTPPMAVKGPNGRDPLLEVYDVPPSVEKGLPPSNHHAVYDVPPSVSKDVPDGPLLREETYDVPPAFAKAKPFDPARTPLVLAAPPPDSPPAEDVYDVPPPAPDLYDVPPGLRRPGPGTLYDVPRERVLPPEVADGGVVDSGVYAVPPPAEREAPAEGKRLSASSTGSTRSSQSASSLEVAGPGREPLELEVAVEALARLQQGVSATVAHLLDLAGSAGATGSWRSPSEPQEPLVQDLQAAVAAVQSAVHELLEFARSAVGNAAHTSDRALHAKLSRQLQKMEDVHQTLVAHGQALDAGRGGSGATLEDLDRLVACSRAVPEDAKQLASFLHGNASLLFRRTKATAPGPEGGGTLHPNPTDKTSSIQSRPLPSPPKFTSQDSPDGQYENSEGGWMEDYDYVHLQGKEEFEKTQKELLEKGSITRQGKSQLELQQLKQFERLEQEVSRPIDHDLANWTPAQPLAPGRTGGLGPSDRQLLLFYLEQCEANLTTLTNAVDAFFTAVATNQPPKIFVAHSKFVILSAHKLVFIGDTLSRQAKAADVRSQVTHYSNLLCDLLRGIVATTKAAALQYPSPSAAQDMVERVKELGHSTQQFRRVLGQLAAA

Variants of: B1
Details: with paxi_human PXN

effect of a mutation on the interaction | Variant
increasing interaction | Y221F

Variants of: B2
Details: with crk_human CRK, P46108

effect of a mutation on the interaction | Variant
disrupting interaction | MEIEKEFHRLDQAASWAAIYQDIRHEASDFPCKVAKHPRNKNRNRYRDVSPFDHSRIKLNQGDNDYINASLIKMEEAQRSYILTQGPLPNTCGHFWEMVWEQKSRGVVMLNRVMEKGSIKCAQYWPRKEEKEMFFEDTNLKLTLISEDIKSYYTVRQLELENLTTQETREILHFHYTTWPDFGVPESPASFLNFLFKVRESGSLNPEYGPVVVHSSAGIGRSGTFCLVDTCLLLMDKRKDPSSVDVKQVLLEMRKYRMGLIQTADQLRFSYLAVIEGAKFIMGDASVQEQWKELSNEDLDPPPEHTPPPPRPPKRTSEMHNGRMHEHAEFFPKHQVVEEEIRCSVSTAEETVSDGRVFSSVPLITDSTSQDTEIRRRTVGENLHVTAHKEESKSESVEEDDENMMTTWKPFLVNICMFTFLTAGAYLCYRVCFH [C215S]

Variants of: B3
Details: with ptn1_chick PTPN1, O13016

effect of a mutation on the interaction | Variant
decreasing interaction | Y221F

Variants of: B4
Details: with bcar1_human BCAR1, P56945

effect of a mutation on the interaction | Variant
increasing interaction | Y221F
